T1: Human PTK7 Protein, His Tag, Acro Biosystems (human, UniProt Q13308 31-704)
T1 construct: Bought recombinant protein; also called CCK4; not shown: His tag
T1 sequence: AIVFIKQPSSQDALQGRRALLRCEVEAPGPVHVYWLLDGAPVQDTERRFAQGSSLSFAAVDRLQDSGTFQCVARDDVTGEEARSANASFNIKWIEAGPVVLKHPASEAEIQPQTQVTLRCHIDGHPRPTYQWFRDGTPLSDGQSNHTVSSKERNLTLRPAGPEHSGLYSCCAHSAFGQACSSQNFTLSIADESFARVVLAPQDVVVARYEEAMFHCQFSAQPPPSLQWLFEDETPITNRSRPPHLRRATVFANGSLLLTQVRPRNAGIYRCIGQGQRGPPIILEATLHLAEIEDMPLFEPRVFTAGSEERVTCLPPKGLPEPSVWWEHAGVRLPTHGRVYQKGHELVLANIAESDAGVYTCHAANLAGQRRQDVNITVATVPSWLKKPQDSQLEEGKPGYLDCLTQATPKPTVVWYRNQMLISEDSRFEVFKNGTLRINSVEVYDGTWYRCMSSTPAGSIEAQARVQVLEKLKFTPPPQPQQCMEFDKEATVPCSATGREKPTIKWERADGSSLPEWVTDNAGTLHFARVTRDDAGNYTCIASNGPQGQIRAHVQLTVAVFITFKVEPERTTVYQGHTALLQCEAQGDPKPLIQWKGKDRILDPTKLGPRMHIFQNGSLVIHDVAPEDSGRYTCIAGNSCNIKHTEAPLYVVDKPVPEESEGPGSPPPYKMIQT


The binders below were run against T1, Human PTK7 Protein, His Tag, Acro … (assay: BLI (Octet), antibody on anti-human Fc sensor, 50 nM PTK7 at pH 7.4, dissociation at pH 7.4 or 5.4; 1 = pH dependent binding relative to parent).

Binder | binding result
MYT10889 (antibody, V domains shown, MYT9345 variant, His at VH pos 30 (H1 05)) VH: EVQLVESGGGLVQPGGSLRLSCTASGFSLHNYVMNWVRQAPGKGLEWVGIIDSSGSTYYASWAKGRFTISRDTSKNTVYLQMNSLRAEDTAVYFCARGLYLWGQGTLVTVSS VL: EIVMTQSPSTLSASVGDRVIITCQSSQSVYNNNLLAWYQQKPGKAPKLLIYYTSNLASGVPSRFSGSGSGAEFTLTISSLQPDDFATYYCQGGYNGNIYAFGQGTKLTVL | binds
MYT10905 (antibody, V domains shown, MYT9345 variant, His at VH pos 60 (H2 11)) VH: EVQLVESGGGLVQPGGSLRLSCTASGFSLSNYVMNWVRQAPGKGLEWVGIIDSSGSTYYHSWAKGRFTISRDTSKNTVYLQMNSLRAEDTAVYFCARGLYLWGQGTLVTVSS VL: EIVMTQSPSTLSASVGDRVIITCQSSQSVYNNNLLAWYQQKPGKAPKLLIYYTSNLASGVPSRFSGSGSGAEFTLTISSLQPDDFATYYCQGGYNGNIYAFGQGTKLTVL | binds
MYT10930 (antibody, V domains shown, MYT9345 variant, His at VL pos 35 (L1 12)) VH: EVQLVESGGGLVQPGGSLRLSCTASGFSLSNYVMNWVRQAPGKGLEWVGIIDSSGSTYYASWAKGRFTISRDTSKNTVYLQMNSLRAEDTAVYFCARGLYLWGQGTLVTVSS VL: EIVMTQSPSTLSASVGDRVIITCQSSQSVYNNNLHAWYQQKPGKAPKLLIYYTSNLASGVPSRFSGSGSGAEFTLTISSLQPDDFATYYCQGGYNGNIYAFGQGTKLTVL | binds
MYT10918 (antibody, V domains shown, MYT9345 variant, Ala at VH pos 52 (H2 03)) VH: EVQLVESGGGLVQPGGSLRLSCTASGFSLSNYVMNWVRQAPGKGLEWVGIIASSGSTYYASWAKGRFTISRDTSKNTVYLQMNSLRAEDTAVYFCARGLYLWGQGTLVTVSS VL: EIVMTQSPSTLSASVGDRVIITCQSSQSVYNNNLLAWYQQKPGKAPKLLIYYTSNLASGVPSRFSGSGSGAEFTLTISSLQPDDFATYYCQGGYNGNIYAFGQGTKLTVL | binds
MYT10925 (antibody, V domains shown, MYT9345 variant, His at VL pos 30 (L1 07)) VH: EVQLVESGGGLVQPGGSLRLSCTASGFSLSNYVMNWVRQAPGKGLEWVGIIDSSGSTYYASWAKGRFTISRDTSKNTVYLQMNSLRAEDTAVYFCARGLYLWGQGTLVTVSS VL: EIVMTQSPSTLSASVGDRVIITCQSSQSVHNNNLLAWYQQKPGKAPKLLIYYTSNLASGVPSRFSGSGSGAEFTLTISSLQPDDFATYYCQGGYNGNIYAFGQGTKLTVL | binds
MYT10920 (antibody, V domains shown, MYT9345 variant, His at VL pos 25 (L1 02)) VH: EVQLVESGGGLVQPGGSLRLSCTASGFSLSNYVMNWVRQAPGKGLEWVGIIDSSGSTYYASWAKGRFTISRDTSKNTVYLQMNSLRAEDTAVYFCARGLYLWGQGTLVTVSS VL: EIVMTQSPSTLSASVGDRVIITCQHSQSVYNNNLLAWYQQKPGKAPKLLIYYTSNLASGVPSRFSGSGSGAEFTLTISSLQPDDFATYYCQGGYNGNIYAFGQGTKLTVL | binds
MYT10903 (antibody, V domains shown, MYT9345 variant, His at VH pos 58 (H2 09)) VH: EVQLVESGGGLVQPGGSLRLSCTASGFSLSNYVMNWVRQAPGKGLEWVGIIDSSGSTHYASWAKGRFTISRDTSKNTVYLQMNSLRAEDTAVYFCARGLYLWGQGTLVTVSS VL: EIVMTQSPSTLSASVGDRVIITCQSSQSVYNNNLLAWYQQKPGKAPKLLIYYTSNLASGVPSRFSGSGSGAEFTLTISSLQPDDFATYYCQGGYNGNIYAFGQGTKLTVL | binds
MYT10927 (antibody, V domains shown, MYT9345 variant, His at VL pos 32 (L1 09)) VH: EVQLVESGGGLVQPGGSLRLSCTASGFSLSNYVMNWVRQAPGKGLEWVGIIDSSGSTYYASWAKGRFTISRDTSKNTVYLQMNSLRAEDTAVYFCARGLYLWGQGTLVTVSS VL: EIVMTQSPSTLSASVGDRVIITCQSSQSVYNHNLLAWYQQKPGKAPKLLIYYTSNLASGVPSRFSGSGSGAEFTLTISSLQPDDFATYYCQGGYNGNIYAFGQGTKLTVL | binds
MYT10928 (antibody, V domains shown, MYT9345 variant, His at VL pos 33 (L1 10)) VH: EVQLVESGGGLVQPGGSLRLSCTASGFSLSNYVMNWVRQAPGKGLEWVGIIDSSGSTYYASWAKGRFTISRDTSKNTVYLQMNSLRAEDTAVYFCARGLYLWGQGTLVTVSS VL: EIVMTQSPSTLSASVGDRVIITCQSSQSVYNNHLLAWYQQKPGKAPKLLIYYTSNLASGVPSRFSGSGSGAEFTLTISSLQPDDFATYYCQGGYNGNIYAFGQGTKLTVL | binds

Now from value to binder:

binding result | Binder
binds | MYT10911 (antibody, V domains shown, MYT9345 variant, His at VH pos 96 (H3 01)) VH: EVQLVESGGGLVQPGGSLRLSCTASGFSLSNYVMNWVRQAPGKGLEWVGIIDSSGSTYYASWAKGRFTISRDTSKNTVYLQMNSLRAEDTAVYFCHRGLYLWGQGTLVTVSS VL: EIVMTQSPSTLSASVGDRVIITCQSSQSVYNNNLLAWYQQKPGKAPKLLIYYTSNLASGVPSRFSGSGSGAEFTLTISSLQPDDFATYYCQGGYNGNIYAFGQGTKLTVL
binds | MYT10926 (antibody, V domains shown, MYT9345 variant, His at VL pos 31 (L1 08)) VH: EVQLVESGGGLVQPGGSLRLSCTASGFSLSNYVMNWVRQAPGKGLEWVGIIDSSGSTYYASWAKGRFTISRDTSKNTVYLQMNSLRAEDTAVYFCARGLYLWGQGTLVTVSS VL: EIVMTQSPSTLSASVGDRVIITCQSSQSVYHNNLLAWYQQKPGKAPKLLIYYTSNLASGVPSRFSGSGSGAEFTLTISSLQPDDFATYYCQGGYNGNIYAFGQGTKLTVL
binds | MYT10895 (antibody, V domains shown, MYT9345 variant, His at VH pos 50 (H2 01)) VH: EVQLVESGGGLVQPGGSLRLSCTASGFSLSNYVMNWVRQAPGKGLEWVGHIDSSGSTYYASWAKGRFTISRDTSKNTVYLQMNSLRAEDTAVYFCARGLYLWGQGTLVTVSS VL: EIVMTQSPSTLSASVGDRVIITCQSSQSVYNNNLLAWYQQKPGKAPKLLIYYTSNLASGVPSRFSGSGSGAEFTLTISSLQPDDFATYYCQGGYNGNIYAFGQGTKLTVL
binds | MYT10916 (antibody, V domains shown, MYT9345 variant, His at VH pos 101 (H3 06)) VH: EVQLVESGGGLVQPGGSLRLSCTASGFSLSNYVMNWVRQAPGKGLEWVGIIDSSGSTYYASWAKGRFTISRDTSKNTVYLQMNSLRAEDTAVYFCARGLYHWGQGTLVTVSS VL: EIVMTQSPSTLSASVGDRVIITCQSSQSVYNNNLLAWYQQKPGKAPKLLIYYTSNLASGVPSRFSGSGSGAEFTLTISSLQPDDFATYYCQGGYNGNIYAFGQGTKLTVL
binds | MYT10891 (antibody, V domains shown, MYT9345 variant, His at VH pos 32 (H1 07)) VH: EVQLVESGGGLVQPGGSLRLSCTASGFSLSNHVMNWVRQAPGKGLEWVGIIDSSGSTYYASWAKGRFTISRDTSKNTVYLQMNSLRAEDTAVYFCARGLYLWGQGTLVTVSS VL: EIVMTQSPSTLSASVGDRVIITCQSSQSVYNNNLLAWYQQKPGKAPKLLIYYTSNLASGVPSRFSGSGSGAEFTLTISSLQPDDFATYYCQGGYNGNIYAFGQGTKLTVL
binds | MYT10896 (antibody, V domains shown, MYT9345 variant, His at VH pos 51 (H2 02)) VH: EVQLVESGGGLVQPGGSLRLSCTASGFSLSNYVMNWVRQAPGKGLEWVGIHDSSGSTYYASWAKGRFTISRDTSKNTVYLQMNSLRAEDTAVYFCARGLYLWGQGTLVTVSS VL: EIVMTQSPSTLSASVGDRVIITCQSSQSVYNNNLLAWYQQKPGKAPKLLIYYTSNLASGVPSRFSGSGSGAEFTLTISSLQPDDFATYYCQGGYNGNIYAFGQGTKLTVL
binds | MYT10898 (antibody, V domains shown, MYT9345 variant, His at VH pos 53 (H2 04)) VH: EVQLVESGGGLVQPGGSLRLSCTASGFSLSNYVMNWVRQAPGKGLEWVGIIDHSGSTYYASWAKGRFTISRDTSKNTVYLQMNSLRAEDTAVYFCARGLYLWGQGTLVTVSS VL: EIVMTQSPSTLSASVGDRVIITCQSSQSVYNNNLLAWYQQKPGKAPKLLIYYTSNLASGVPSRFSGSGSGAEFTLTISSLQPDDFATYYCQGGYNGNIYAFGQGTKLTVL

— patent publication US20260209386A1 (MYTHIC THERAPEUTICS, published 2026)
